Data as given in the supplement of paper PMC12764529.
± gives the half width of the 95% confidence interval.

Test: folding stability dG unfold (combined trypsin and chymotrypsin); higher = more stable
Outline: (§1)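 Sequencing followed digestion of designed mini-proteins with trypsin and chymotrypsin, each at 11 concentrations in threefold dilutions together with a no-protease condition. The mini-proteins were under 80 residues, had no cysteine, sat in a PA-tagged cDNA display construct, and were kept only if AlphaFold2 dimer inter-PAE was above 15. From the counts, Bayesian fitting gave K50, and unfolding free energy was derived against a sequence-predicted unfolded-state K50 and a shared folded-state K50, per protease or combined.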

| Sequence | folding stability dG unfold [kcal/mol] |
| --- | --- |
| SAGGMKIEIEIEMTPEEVRKAIEELAKALGLKIVKVEVEVERKEDGTLRVRVTIEIEPLPEEELEPESAGGS [r8_374_TrROS_Hall] | 4 ± 0.25 |
| SAGGSAGGSAPMKIDEITDVYPNPNRPKIIIKWRGPNGQPMVFDPENGKWMTPEEALDALKSAGGSAGGSAG [r3_206_TrROS] | 0.935 ± 0.046 |
| SAGGSAGVVKGRIEITFVVPPDAPGVEELARETVKRIGFDAENVEILKVERLPDGSYRVTLLLDAPSAGGSA [r15_654_TrMRF] | 4.21 ± 0.071 |
| SAGGSPRLELTVTIPGLGLPVTVRTESVDPVRGYVTATLDFPVPGYRATLVFDPVTGRVYARVEPASAGGSA [r2_147_TrMRF] | 2.85 ± 0.12 |
| SAGGMIIIKFKTKEQAKKAIEAAKKGKEIEITLKDGKKIKAKVVKVEEKPNYVYLVIKTEDGKEIKFSAGGS [r16_254_TrROS_Hall] | 2.31 ± 0.12 |
| SAGGSAGGSAGGSPFTIKIKMEQPNGRKRTYTIEGEGDLDQIAKELEKHYPGRIKDIEISAGGSAGGSAGGS [r4_412_TrROS] | 0.548 ± 0.27 |
| SAGGPKITIMWPEGMPPEELENFLKKLNPNYKVEYRPMPPEDMKDMPPGDVVISIPFDGRYWYLRIKPSAGG [r13_649_TrROS] | 1.88 ± 0.081 |
| SAGGSAGGSAGGDPDERIPIKIEMWHPNKPYEHEFPVGMDLSDIADPFASDGFMVRIEISAGGSAGGSAGGS [r10_540_TrROS] | 1.05 ± 0.14 |
| SAGGSAGGMVTTKELPSNKTVTVTVTPDPVAGREGATVKPPSTSETKNFGDPAAAAAMSPEKLSSAGGSAGG [r6_740_JUSTAS] | 0.29 ± 0.15 |
| SAGGSAKPNEKVKIRIINEDGEEIEIEVEVKPGEKIYLLENGEEVEVKPGEKIEFPPGAKILVEKVSAGGSA [r15_152_TrROS_Hall] | 1.1 ± 0.12 |
| SAGGSAENKTIKITFTFKNAKNAIFTINVEKGNKTYKITFNLSDNQELNIEVDYNNTKVSFSIYPASAGGSA [r15_414_TrMRF] | 4.74 ± 0.43 |
| SAGGGKTVVTTTPDGRTVVAAELPDGSVVAVATFPDAPVLATYNPETKTVTVAFFKGGKLVATASDSSSAGG [r13_748_TrMRF] | 0.837 ± 0.13 |
| SAGGSAGGSPKPKVKKFNMEPVEIEPNPDNGHLSIRFPNGYYIQFHYDDDGEYELQIMPPDDLSAGGSAGGS [r12_351_TrROS] | 0.455 ± 0.17 |
| SAGGSMTTTTEDKGDGRIVTTTIPEEGTVVTTTIFYEPGGPKVETKTTTTPVPPLPSTVVTSPNLASAGGSA [r2_375_JUSTAS] | 0.937 ± 0.34 |
| SAGGSAGGSGDDIPTLTLVIKVDPNAITPEDIEEIKQAFLDLGYKEVTVTRNPETGYLVVELGSAGGSAGGS [r12_1025_TrMRF] | 3.01 ± 0.21 |
| SAGGSASVKIEVTVSPEQPDLTEEEAKAALTLTLPDGRPVKVEVLEVKPVPGSTVLLVEVEENVLLSAGGSA [r15_331_JUSTAS] | 1.13 ± 0.079 |
| SAGGSAGGSAEIVPVDGKLYVRIEVDGKTYVFEFDSVEELKNATFTLPNGKKVKVEIVPKEDLSAGGSAGGS [r12_730_TrROS_Hall] | 3.12 ± 0.059 |
| SAGGMPPVVTEHTVELNPPASATLEDVRAAAEEVAAAIRAAAPEAGVAEVTFTVDPSRGTVTITVTRPSAGG [r13_1011_JUSTAS] | 0.442 ± 0.043 |
| SAGKFPFMIKIEDKDGKPKDEIPIPAEELQDDPEKFLEIVETIADEFSKDGYRVKIYFPGTGQPIEIPISAG [r14_972_TrROS] | 0.859 ± 0.2 |
| SAGGSAGGSMPPNFRVMIHDDDGEERTFHMSPEDLKEFADNLPDVKVEPHPPGMMHITVRVPKSAGGSAGGS [r20_231_TrROS] | 0.101 ± 0.092 |
| SAGGMETWRIKVDGKEIEVTVEDGKITVTFADGTKVEITLEEGETPEEVAKRLAEELGADKVEIEKVPSAGG [r13_852_TrROS_Hall] | 3.3 ± 0.19 |

Test: folding stability dG unfold from trypsin proteolysis; higher = more stable
Outline: as §1

| Sequence | folding stability dG unfold [kcal/mol] |
| --- | --- |
| SAGGMTLEERAEALAAERGWTVTSIELVEEKPGEVKFRVTFRLPDGSLETVEITVKRPPPVPPDNLLSAGGS [r8_309_JUSTAS] | 3.73 ± 0.11 |
| SAGGSAGGSTLEEVRKIAEEAVKKGYPYVVISAPGGLKKVFKVEEDDIVEIPDSEGYTVELLSSAGGSAGGS [r20_44_TrMRF] | 0.202 ± 0.07 |
| SAGGMPLPDEKVNITITINYTLPGGKPKTITIPATNWTVEEANEKKKKVEEELKKVPPDPVEKDGKLLSAGG [r13_330_JUSTAS] | -0.745 ± 0.19 |
| SAGKPGEPIKLKIRYVDPDNGEPQTFEFPIKRIEDVEIDPPGNIIITFPGDGQEITFPPNHLTEVEILSAGG [r19_416_TrROS] | -0.852 ± 0.73 |
| SAGGSAEVTITVEYDEETGVLKITITVPPGVTVEEIAEALKKLVPDVKVEKNEDGTITVYVKLPEKSAGGSA [r15_1057_TrROS_Hall] | 2.44 ± 0.16 |
| SAGGSAGGSAMFPDNTTVIEKEVPSSDVESAIEEIKKEYGVENYEVTTEPRPGTVKITVTIKPSAGGSAGGS [r12_929_JUSTAS] | 1.65 ± 0.064 |
| SAVPAEGMSPEEAAALAEEVREAFEAEVKAAGGPIPADTVVTVDYALEGSPVTITLTFTTPDSVSTTVASAG [r14_501_JUSTAS] | 1.12 ± 0.045 |
| SAGGSAGGSAGGSPVEIKLKELPDGVLVAEATFTLENGETVKIKAVYDKKTKKLHFELVSAGGSAGGSAGGS [r4_13_TrROS_Hall] | 2.15 ± 0.086 |
| SPEVPPGKTLEREFKGVPVRLTREEESGTIHITVYPPTDPSKPLYEAEFSPDELRPIPLPPEVAAALAAESA [r9_1051_JUSTAS] | -0.681 ± 0.24 |
| SAGGMVIIIPSPDNTVLIIEIEGDKAKIIIINPEDGSAVIIELPIEPNGDGSFILKITSIEVLEDADISAGG [r13_556_TrMRF] | 2.97 ± 0.2 |
| SGMLAPDATVTTTEIVFEKDPKTGLYYLTVKEKTVTVKPDSSGRLVLTTSPVTITDLGPLTPEEAEKLLSSA [r9_423_JUSTAS] | 2.16 ± 0.052 |
| SAGGSAGGKVRINWNPNGWIRIKIETPGKKQEIPIPMDSPEDAKDFVDKLAKQFKVKIEEIEPYSAGGSAGG [r6_254_TrROS] | -0.179 ± 0.47 |
| SAGGSAGGSSEKAEELLERLRELLPPEEIRRVEVRDGKIVIEVSPEAARRLAEELGLDEIEIVSAGGSAGGS [r12_748_TrROS_Hall] | 2.53 ± 0.09 |
| SPSPAAKNMKPIRIRLRDPNGKKYKIENINVGPDGQFQIRIKFPGNTHTQTLPPGAPFELPPDRIEEVEISA [r9_993_TrROS] | 0.808 ± 0.079 |
| SAGGSAGGSAWMYRIKIEIYSNGKKHKYEFWIPEDNIDEVADQLPPGYKIKITDIEPWEPNSAGGSAGGSAG [r3_195_TrROS] | 1.82 ± 0.022 |
| SAGGKTVTIKVTRPDGKELTIEFEEKDGKVTVRVFDKDGKLVKEIEVDSLEEALKALEEAGYEVEVVPSAGG [r13_315_TrROS_Hall] | 3.49 ± 0.22 |
| SAGGSAGGSAGMLVYRTVVTTEVLETETTSFPTPEGPYVTTTTVTVKTTVTVEKLTPELLSAGGSAGGSAGG [r11_24_JUSTAS] | 2.67 ± 0.14 |
| SAGGSAGGSMEIVVPVKNPEELKAVAEELEKKGYKVEKLPDGSLKVEKPGSVIYIKGDPVPPLSAGGSAGGS [r12_204_JUSTAS] | 1.52 ± 0.074 |
| SAGGSASEELVEEIANIIKPALEEEGIEVERVEATAVTLPDGTVVIPVRVRTKDGPEVLEFNIVILSAGGSA [r15_232_TrMRF] | 1.1 ± 0.027 |
| SAGGSAGGSAGGKTVVLFVDPKTKKVYILYPDGKIETLSPEELKNKPIIVKPVKLHPKAGSAGGSAGGSAGG [r7_98_TrMRF] | 0.817 ± 0.024 |
| SAGEIVIPIPFDWEQAPRMAKHLLRRFQQEGKKIRIWVPDAGAVEAIKDALPPNFPIEVEPLKPGEPIPSAG [r5_911_TrROS] | 0.299 ± 0.34 |

| Sequence | folding stability dG unfold [kcal/mol] |
| --- | --- |
| SAGGMKIEIEIEMTPEEVRKAIEELAKALGLKIVKVEVEVERKEDGTLRVRVTIEIEPLPEEELEPESAGGS [r8_374_TrROS_Hall] | 3.63 ± 0.16 |
| SAGGSAGGSAPMKIDEITDVYPNPNRPKIIIKWRGPNGQPMVFDPENGKWMTPEEALDALKSAGGSAGGSAG [r3_206_TrROS] | 0.571 ± 0.059 |
| SAGGSAGVVKGRIEITFVVPPDAPGVEELARETVKRIGFDAENVEILKVERLPDGSYRVTLLLDAPSAGGSA [r15_654_TrMRF] | 3.17 ± 0.059 |
| SAGGSPRLELTVTIPGLGLPVTVRTESVDPVRGYVTATLDFPVPGYRATLVFDPVTGRVYARVEPASAGGSA [r2_147_TrMRF] | 2.34 ± 0.04 |
| SAGGMIIIKFKTKEQAKKAIEAAKKGKEIEITLKDGKKIKAKVVKVEEKPNYVYLVIKTEDGKEIKFSAGGS [r16_254_TrROS_Hall] | 2.16 ± 0.086 |
| SAGGSAGGSAGGSPFTIKIKMEQPNGRKRTYTIEGEGDLDQIAKELEKHYPGRIKDIEISAGGSAGGSAGGS [r4_412_TrROS] | -0.101 ± 0.31 |
| SAGGPKITIMWPEGMPPEELENFLKKLNPNYKVEYRPMPPEDMKDMPPGDVVISIPFDGRYWYLRIKPSAGG [r13_649_TrROS] | 1.65 ± 0.048 |
| SAGGSAGGSAGGDPDERIPIKIEMWHPNKPYEHEFPVGMDLSDIADPFASDGFMVRIEISAGGSAGGSAGGS [r10_540_TrROS] | 0.795 ± 0.058 |
| SAGGSAGGMVTTKELPSNKTVTVTVTPDPVAGREGATVKPPSTSETKNFGDPAAAAAMSPEKLSSAGGSAGG [r6_740_JUSTAS] | 0.42 ± 0.034 |
| SAGGSAKPNEKVKIRIINEDGEEIEIEVEVKPGEKIYLLENGEEVEVKPGEKIEFPPGAKILVEKVSAGGSA [r15_152_TrROS_Hall] | 1.11 ± 0.034 |
| SAGGSAENKTIKITFTFKNAKNAIFTINVEKGNKTYKITFNLSDNQELNIEVDYNNTKVSFSIYPASAGGSA [r15_414_TrMRF] | 3.94 ± 0.48 |
| SAGGGKTVVTTTPDGRTVVAAELPDGSVVAVATFPDAPVLATYNPETKTVTVAFFKGGKLVATASDSSSAGG [r13_748_TrMRF] | 0.698 ± 0.062 |
| SAGGSAGGSPKPKVKKFNMEPVEIEPNPDNGHLSIRFPNGYYIQFHYDDDGEYELQIMPPDDLSAGGSAGGS [r12_351_TrROS] | -0.0555 ± 0.14 |
| SAGGSMTTTTEDKGDGRIVTTTIPEEGTVVTTTIFYEPGGPKVETKTTTTPVPPLPSTVVTSPNLASAGGSA [r2_375_JUSTAS] | 0.572 ± 0.093 |
| SAGGSAGGSGDDIPTLTLVIKVDPNAITPEDIEEIKQAFLDLGYKEVTVTRNPETGYLVVELGSAGGSAGGS [r12_1025_TrMRF] | 3.03 ± 0.25 |
| SAGGSASVKIEVTVSPEQPDLTEEEAKAALTLTLPDGRPVKVEVLEVKPVPGSTVLLVEVEENVLLSAGGSA [r15_331_JUSTAS] | 1.64 ± 0.061 |
| SAGGSAGGSAEIVPVDGKLYVRIEVDGKTYVFEFDSVEELKNATFTLPNGKKVKVEIVPKEDLSAGGSAGGS [r12_730_TrROS_Hall] | 2.26 ± 0.067 |
| SAGGMPPVVTEHTVELNPPASATLEDVRAAAEEVAAAIRAAAPEAGVAEVTFTVDPSRGTVTITVTRPSAGG [r13_1011_JUSTAS] | 0.985 ± 0.018 |
| SAGKFPFMIKIEDKDGKPKDEIPIPAEELQDDPEKFLEIVETIADEFSKDGYRVKIYFPGTGQPIEIPISAG [r14_972_TrROS] | 0.418 ± 0.2 |
| SAGGSAGGSMPPNFRVMIHDDDGEERTFHMSPEDLKEFADNLPDVKVEPHPPGMMHITVRVPKSAGGSAGGS [r20_231_TrROS] | -0.72 ± 0.19 |
| SAGGMETWRIKVDGKEIEVTVEDGKITVTFADGTKVEITLEEGETPEEVAKRLAEELGADKVEIEKVPSAGG [r13_852_TrROS_Hall] | 3.38 ± 0.48 |
